Laboratory results reported in patent US20250179196A1 (Janssen / Centocor, published 2025).

T1: human IL-23R expressed on the cell surface of stably transfected iLite and HEK cell lines (human, UniProt Q5VWK5 24-629)
T1 construct: whole, on cells; Same receptor on two transfected cell lines; the cell line is named under assay; also called human IL-23R iLite cells; human IL-23R HEK cells
T1 sequence (looked up): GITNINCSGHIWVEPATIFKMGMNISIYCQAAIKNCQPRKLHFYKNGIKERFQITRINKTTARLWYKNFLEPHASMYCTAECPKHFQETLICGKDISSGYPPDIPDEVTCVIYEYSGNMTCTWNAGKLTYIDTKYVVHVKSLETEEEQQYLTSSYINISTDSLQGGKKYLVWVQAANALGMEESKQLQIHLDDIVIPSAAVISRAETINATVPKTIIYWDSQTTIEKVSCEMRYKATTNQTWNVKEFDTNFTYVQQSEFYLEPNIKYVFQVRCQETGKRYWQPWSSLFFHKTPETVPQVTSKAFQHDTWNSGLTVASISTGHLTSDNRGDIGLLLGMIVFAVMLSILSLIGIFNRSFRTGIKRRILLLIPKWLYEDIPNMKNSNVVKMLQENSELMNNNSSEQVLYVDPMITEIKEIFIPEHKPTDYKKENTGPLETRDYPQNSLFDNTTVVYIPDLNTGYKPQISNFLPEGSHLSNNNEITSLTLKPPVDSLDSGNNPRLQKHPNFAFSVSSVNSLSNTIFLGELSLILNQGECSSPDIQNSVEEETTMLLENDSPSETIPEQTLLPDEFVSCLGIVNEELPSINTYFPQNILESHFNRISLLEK

B1: I23RB6 (antibody, mouse IgG2a, kappa, V domains shown)
VH: QVQLVQSGAEVKKPGSSVKVSCKASGGTFSSYAISWVRQAPGQGLEWMGGIIPIFGTANYAQKFQGRVTITADESTSTAYMELSSLRSEDTAVYYCARGRYIRSYDYFDYWGQGTLVTVSS
VL: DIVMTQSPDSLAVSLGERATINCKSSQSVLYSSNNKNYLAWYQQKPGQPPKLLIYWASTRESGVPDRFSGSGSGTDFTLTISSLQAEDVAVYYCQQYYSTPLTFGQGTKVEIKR
notes: phage display; human V, mouse IgG2a/kappa
B2: I23RB1 (antibody, mouse IgG2a, kappa, V domains shown)
VH: QVQLVQSGAEVKKPGSSVKVSCKASGGTFKNYAISWVRQAPGQGLEWMGWIRPIFGTAYYAQKFQGRVTITADESTSTAYMELSSLRSEDTAVYYCARDSGSRYAGRYAFDYWGQGTLVTVSS
VL: EIVLTQSPATLSLSPGERATLSCRASQSVSSYLAWYQQKPGQAPRLLIYDASNRATGIPARFSGSGSGTDFTLTISSLEPEDFAVYYCQQRSNWPLTFGQGTKVEIKR
notes: as for B1
B3: I23RB2 (antibody, mouse IgG2a, kappa, V domains shown)
VH: QVQLVQSGAEVKKPGSSVKVSCKASGGTFSSYAISWVRQAPGQGLEWMGGIIPIFGTANYAQKFQGRVTITADESTSTAYMELSSLRSEDTAVYYCARDRYRYLGANGFDYWGQGTLVTVSS
VL: EIVLTQSPATLSLSPGERATLSCRASQSVSSYLAWYQQKPGQAPRLLIYDASNRATGIPARFSGSGSGTDFTLTISSLEPEDFAVYYCQQRSNWPLTFGQGTKVEIKR
notes: as for B1
B4: I23RB328 (antibody, mouse IgG2a, kappa, V domains shown)
VH: QVQLVQSGAEVKKPGSSVKVSCKASGGTFSSYAISWVRQAPGQGLEWMGGIIPIFGTANYAQKFQGRVTITADESTSTAYMELSSLRSEDTAVYYCARGRYIRSYDYFDYWGQGTLVTVSS
VL: EIVLTQSPATLSLSPGERATLSCRASQSVSSYLAWYQQKPGQAPRLLIYDASNRATGVPARFSGSGTGTDFTLTISSLQPEDVAVYYCQQRNSTPLTFGQGTKVEIKR
notes: as for B1
B5: I23RB3 (antibody, mouse IgG2a, kappa, V domains shown)
VH: QVQLVQSGAEVKKPGSSVKVSCKASGGTFKSYSIHWVRQAPGQGLEWMGGIIPYFGYANYAQKFQGRVTITADESTSTAYMELSSLRSEDTAVYYCARERGYYGSIYYGGGFDYWGQGTLVTVSS
VL: EIVLTQSPATLSLSPGERATLSCRASQSVSSYLAWYQQKPGQAPRLLIYDASNRATGIPARFSGSGSGTDFTLTISSLEPEDFAVYYCQQRSNWPLTFGQGTKVEIKR
notes: as for B1
B6: I23RB9 (antibody, mouse IgG2a, kappa, V domains shown)
VH: QVQLVQSGAEVKKPGSSVKVSCKASGGTFSSYAISWVRQAPGQGLEWMGGIIPIFGTANYAQKFQGRVTITADESTSTAYMELSSLRSEDTAVYYCARDRSYSYGLSGLGYYGFDYWGQGTLVTVSS
VL: EIVLTQSPATLSLSPGERATLSCRASQSVSSYLAWYQQKPGQAPRLLIYDASNRATGIPARFSGSGSGTDFTLTISSLEPEDFAVYYCQQRSNWPLTFGQGTKVEIKR
notes: as for B1
B7: I23RB330 (antibody, mouse IgG2a, kappa, V domains shown)
VH: QVQLVQSGAEVKKPGSSVKVSCKASGGTFSSYAISWVRQAPGQGLEWMGGIIPIFGTANYAQKFQGRVTITADESTSTAYMELSSLRSEDTAVYYCARDRSYSYGLSGLGYYGFDYWGQGTLVTVSS
VL: EIVLTQSPATLSLSPGERATLSCRASQSVSSYLAWYQQKPGQAPRLLIYDASNRATGIPARFSGSGSGTDFTLTISSLEPEDFAVYYCQQRSNTPLTFGQGTKVEIKR
notes: as for B1
B8: I23RB104 (antibody, mouse IgG2a, kappa, V domains shown)
VH: EVKLVESGGGLVKPGGSLKLSCAASGFTFSSYAMSWVRQTPEKRLDWVASISTGGSTYYPDSVKGGFTISRDIARNTLSLQMTSLRSEDTAMYYCARGPHYYGGSYPFAYWGQGTTLTVSS
VL: DIQMTQSPASLSVSVGETVTITCRASENIYSNLAWYQQKQGKSPQLLVYAATNLADGVPSRFSGSGSGTQYSLKINSLQSEDFGSYYCQHFWGTPPTFGSGTKLEIKR
notes: immunization; mouse IgG2a/kappa
B9: I23RB332 (antibody, mouse IgG2a, kappa, V domains shown)
VH: QVQLQQPGAELVMPGASVKLSCKASGYTFTSYWMHWVKQRPGQGLEWIGEIDPSDSYTNYNQKFKGKSTLTVDKSSSTAYMQLSSLTSEDSAVYYCARSYAFDYWGQGTTVTVSS
VL: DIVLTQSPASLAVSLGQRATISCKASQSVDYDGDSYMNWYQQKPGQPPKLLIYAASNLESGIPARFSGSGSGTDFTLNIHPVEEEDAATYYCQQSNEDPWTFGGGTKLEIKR
notes: phage display; mouse V, mouse IgG2a/kappa
B10: I23RB189 (antibody, mouse IgG2a, kappa, V domains shown)
VH: DVQLQESGPDLVKPSQSLSLTCTVTGYSITSGYNWHWIRQFPGNKLEWMGYIHSSGTTNYSPSLRSRLSITRDTSKNQFFLQLNSVTTEDTATYYCTRQLGLKAMEYWGQGTTLTVSS
VL: DIVLTQSPKSMSMSVGERVTLSCKASENVGTYVSWYQQKPEQSPKLLMYGASNRYTGVPDRFTGSGSATDFTLTISSVQAEDLADYHCGQSYSYPPTFGGGTKLEIKR
notes: as for B8
B11: I23RB149 (antibody, mouse IgG2a, kappa, V domains shown)
VH: DVQLQESGPDLVKPSQSLSLTCTVTGYSITSGYNWHWIRQFPGNKLEWMGYIHFSDRTNYNPSLKSRISITRDTSKNQFFLQLNSVTSEDTATYYCSRQLGLKALDYWGQGTTLTVSS
VL: DVQMIQSPLSLPVSLGDQASISCRSSQSLVHSNGNTYLHWYLQKPGQSPKLLIYKVSNRFSGVPDRFSGSGSGTDFTLKISRVEAEDLGVYFCSQSTHVPLTFGAGTRLEIKR
notes: as for B8
B12: I23RB278 (antibody, mouse IgG2a, kappa, V domains shown)
VH: EVQLLESGGGLVQPGGSLRLSCAASGFTFSSYAMSWVRQAPGKGLEWVSAISGSGGSTYYADSVKGRFTISRDNSKNTLYLQMNSLRAEDTAVYYCVRGGSLGGGFYFDYWGQGTLVTVSS
VL: not shown
notes: as for B1

Tests used:
[1] = target: T1, human IL-23R expressed on the cell …; assay: flow cytometry on human IL-23R iLite cells, Expt A (1-point)
Procedure: Human IL-23R iLiTe cell single concentration mAb Binding. Anti-IL-23R mouse IgG₂ₐ mAbs derived from phage panning were tested for binding to human IL-23R expressing iLiTe cells, where a PE conjugated anti mouse secondary antibody detected mAbs bound to the receptor on the cells. […] The next day 100,000 cells were added to each well of a 96 well V bottom plate (Costar, Catalog #3357), centrifuged at 450× gravity for 2 minutes, and then supernatants were decanted. […] Antibodies diluted to 3 μg/mL in Stain Buffer (BSA) (BD Pharmagen, Catalog #554657) were added at 100 μL/well and incubated on ice for 50 minutes, then plates were centrifuged and supernatants were decanted. […] Cells were washed by adding 100 μL/well of Stain Buffer followed by centrifugation and decanting of the supernatants. Cells were resuspended in 100 μL/well of Stain Buffer and analyzed on the Becton Dickenson LSR II FACS instrument with HTS module. Data was analyzed using FlowJo software (Treestar) to obtain geometric mean fluorescence intensities.

[2] = target: T1, human IL-23R expressed on the cell …; assay: flow cytometry on human IL-23R iLite cells, Expt C (12-point), Gate 1 + 2
Procedure: (§1) Human IL-23R iLiTe cell concentration response mAb binding. […] The next day 100,000 cells were added to each well of a 96 well V bottom plate (Costar, Catalog #3357), centrifuged at 450× gravity for 2 minutes, and then supernatants were decanted. Antibodies were diluted in Stain Buffer (BSA) (BD Pharmagen, Catalog #554657) and added at 50 μL/well, and mixed. Plates were incubated on ice for 50 minutes, then plates were centrifuged and supernatants were decanted. […] Cells were washed by adding 200 μL/well of Stain Buffer followed by centrifugation and decanting of the supernatants. Cells were resuspended in 100 μL/well of Stain Buffer, transferred in quadruplicate to a 384 well plate (Greiner, Catalog #781281) and analyzed on the Becton Dickenson LSR II FACS instrument with HTS module. Data was analyzed using FlowJo software (Treestar) to obtain geometric mean fluorescence intensities, and geometric mean fluorescence intensities were plotted over log mAb concentrations fitted with a sigmoidal dose response curve with variable slope using GraphPad Prism.

[3] = target: T1, human IL-23R expressed on the cell …; assay: flow cytometry on human IL-23R HEK cells, Expt E (11-point, 384well)
Outline: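 Antibody bound to HEK-IL-23R cells 30 min at 37 °C over 11 concentrations; after washes, Sytox Green added and cells run on iQue. Geometric MFI of 647 detection antibody on single viable cells fitted by variable-slope dose–response.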

[4] = target: T1, human IL-23R expressed on the cell …; assay: flow cytometry on human IL-23R iLite cells, Expt C (12-point), Gate 2
Procedure: as §1

[5] = target: T1, human IL-23R expressed on the cell …; assay: flow cytometry on human IL-23R iLite cells, Expt B (1-point)
Procedure: Human IL-23R iLiTe cell single concentration mAb Binding. Anti-IL-23R mouse IgG₂ₐ mAbs derived from phage panning were tested for binding to human IL-23R expressing iLiTe cells, where a PE conjugated anti mouse secondary antibody detected mAbs bound to the receptor on the cells. […] The next day 100,000 cells were added to each well of a 96 well V bottom plate (Costar, Catalog #3357), centrifuged at 450× gravity for 2 minutes, and then supernatants were decanted. […] Cells were washed by adding 100 μL/well of Stain Buffer followed by centrifugation and decanting of the supernatants. Cells were resuspended in 100 μL/well of Stain Buffer and analyzed on the Becton Dickenson LSR II FACS instrument with HTS module. Data was analyzed using FlowJo software (Treestar) to obtain geometric mean fluorescence intensities.

[6] = target: T1, human IL-23R expressed on the cell …; assay: flow cytometry on human IL-23R HEK cells, Expt D (8-point, 96well); legend: N-No cell binding observed
Procedure: HEK-IL-23R cell concentration response mAb binding (8-point, 96-well assay). […] HEK-IL-23R and HEK-parental cells (12.5 μL of each, 120000 cells total) were plated in 2× replicate on 96-well V-bottom plates (Corning, Cat #3357) into 37° C. warmed Assay medium containing serially diluted IL-23R mAbs to a final volume of 150 μL. IL-23R mAbs were allowed to bind to cells for 30 minutes, at 37° C. […] Cells were next washed twice in ice-cold stain buffer, then resuspended in a final volume of 30 μL with Sytox Green viability dye (ThermoFisher, Cat #S7020). Plates were kept on ice until run for analysis on the iQue. All washes were performed by centrifugation (800 rcf, 3 minutes) followed by flick decantation to remove supernatants. Cell-binding to HEK-IL-23R cells was measured with FlowJo, by gating for single, viable cells and determining the geometric mean fluorescence intensity (MFI) for the 647 detection antibody. Geometric mean fluorescence intensities were plotted over log mAb concentrations fitted with a dose response curve with variable slope using GraphPad Prism.

| Binder | MFI @ 20 nM [1] [MFI] | binding result [6] | other results |
| --- | --- | --- | --- |
| B1 | 139 | – | – |
| B2 | 5090 | – | EC50 [2]: 0.26 nM; MFI (6.4 nM) [3]: 287000 MFI; EC50 [4]: 0.02 nM; MFI @ 0.7 nM [5]: 2990 MFI |
| B3 | 4110 | – | EC50 [2]: 1.09 nM; EC50 [4]: 1.11 nM; MFI @ 0.7 nM [5]: 670 MFI |
| B4 | – | no binding | – |
| B5 | 4320 | – | EC50 [2]: 0.66 nM; MFI (6.4 nM) [3]: 149000 MFI; EC50 [4]: 0.37 nM; MFI @ 0.7 nM [5]: 1460 MFI |
| B6 | 86 | – | – |
| B7 | – | no binding | – |
| B8 | – | no binding | – |
| B9 | – | no binding | – |
| B10 | – | no binding | – |
| B11 | – | no binding | – |
| B12 | – | no binding | – |
